Test results taken from article PMC7078746, “Processing of the SARS-CoV pp1a/ab nsp7–10 region” (Biochemical Journal, 2020).

T1: SARS-CoV nsp9 (SARS-CoV), P0C6X7
T1 chain: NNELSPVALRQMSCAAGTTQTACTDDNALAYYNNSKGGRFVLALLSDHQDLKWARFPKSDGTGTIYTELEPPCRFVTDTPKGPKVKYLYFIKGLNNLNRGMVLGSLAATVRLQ

B1: SARS-CoV main protease M^pro with authentic ends (enzyme)
chain: SGFRKMAFPSGKVEGCMVQVTCGTTTLNGLWLDDTVYCPRHVICTAEDMLNPNYEDLLIRKSNHSFLVQAGNVQLRVIGHSMQNCLLRLKVDTSNPKTPKYKFVRIQPGQTFSVLACYNGSPSGVYQCAMRPNHTIKGSFLNGSCGSVGFNIDYDCVSFCYMHHMELPTGVHAGTDLEGKFYGPFVDRQTAQAAGTDTTITLNVLAWLYAAVINGDRWFLNRFTTTLNDFNLVAMKYNYEPLTQDHVDILGPLSAQTGIAVLDMCAALKELLQNGMNGRTILGSTILEDEFTPFDVVRQCSGVTFQ
notes: also called 3CL^pro; nsp5
B2: SARS-CoV nsp9, P0C6X7 (natural protein)
chain: T1 chain

How the values were obtained:
[1] = biological target: the molecule itself; assay: native MS
[2] = biological target: T1, SARS-CoV nsp9 (SARS-CoV), P0C6X7; assay: native MS; conditions: remark: other sources report otherwise

Row | Binder | stoichiometry N [1] | mass fraction of dimers [2] [%] | mass fraction of monomers [2] [%] | stoichiometry N [2]
1 | B1 | 2 |  |  | 
2 | B2 |  | 25 | 75 | 2
